Reference: patent US20200190143A1
Each block holds one binder with its values, some of them ahead of it. No end group written: not given here.

What was measured:
[1] = target: melanocortin receptor on melanocytes; assay: interference with alpha-MSH binding to melanocytes as in Example 4-1; peptide density 0.05 peptides/µm^2
[2] = target: melanocortin receptor on melanocytes; assay: interference with alpha-MSH binding to melanocytes as in Example 4-1; peptide density 10 peptides/µm^2
[3] = target: melanocortin receptor on melanocytes; assay: interference with alpha-MSH binding to melanocytes as in Example 4-1; peptide density 7 peptides/µm^2
[4] = target: fibroblast growth factor receptor on fibroblasts; assay: binding to fibroblasts as in Example 3-1; peptide density 10 peptides/µm^2
[5] = target: melanocortin receptor on melanocytes; assay: interference with alpha-MSH binding to melanocytes as in Example 4-1; peptide density 0.1 peptides/µm^2
[6] = target: fibroblast growth factor receptor on fibroblasts; assay: binding to fibroblasts as in Example 3-1; peptide density 10.5 peptides/µm^2
[7] = target: melanocortin receptor on melanocytes; assay: flow cytometry (FACS), fluorescence immunoassay, on melanocytes
[8] = target: melanocortin receptor on melanocytes; assay: binding of alpha-MSH to melanocytes after treatment with 10 µM capsule 2; competitor alpha-MSH
[9] = target: melanocortin receptor on melanocytes; assay: interference with alpha-MSH binding to melanocytes as in Example 4-1; peptide density 2 peptides/µm^2; reference set to 10
[10] = target: fibroblast growth factor receptor on fibroblasts; assay: capsule and fibroblasts cultured together at 4° C. for 1 hour
[11] = target: fibroblast growth factor receptor on fibroblasts; assay: flow cytometry (FACS), fluorescence immunoassay, on fibroblasts
[12] = target: fibroblast growth factor receptor on fibroblasts; assay: binding to fibroblasts as in Example 3-1; peptide density 2 peptides/µm^2; reference set to 10
[13] = target: integrin receptor (beta-1 family) on keratinocytes; assay: flow cytometry (FACS), fluorescence immunoassay, on keratinocytes
[14] = target: fibroblast growth factor receptor on fibroblasts; assay: binding to fibroblasts as in Example 3-1; peptide density 0.1 peptides/µm^2
[15] = target: melanocortin receptor on melanocytes; assay: interference with alpha-MSH binding to melanocytes as in Example 4-1; peptide density 10.5 peptides/µm^2
[16] = target: fibroblast growth factor receptor on fibroblasts; assay: binding to fibroblasts as in Example 3-1; peptide density 0.05 peptides/µm^2
[17] = target: fibroblast growth factor receptor on fibroblasts; assay: binding to fibroblasts as in Example 3-1; peptide density 7 peptides/µm^2

binding interference of melanocyte and alpha-MSH, relative (capsule 2-3 = 10) (relative to capsule 2-3 = 10) [1]: 3
B1: capsule 2-1 (peptide)
peptide: EGHKIFPSWY
modifications: not fully specified (N-terminus); printed as Glu-Gly-His-Lys-Ile-Phe-Pro-Ser-Trp-Tyr; also: N-terminus amide-linked to microcapsule surface carboxyl (EDAC/NHS)

binding interference of melanocyte and alpha-MSH, relative (capsule 2-3 = 10) (relative to capsule 2-3 = 10) [2]: 7
B2: capsule 2-5 (peptide)
peptide: EGHKIFPSWY
modifications: not fully specified (N-terminus); printed as Glu-Gly-His-Lys-Ile-Phe-Pro-Ser-Trp-Tyr; also: N-terminus linked to microcapsule surface carboxyl (EDAC/NHS)

binding interference of melanocyte and alpha-MSH, relative (capsule 2-3 = 10) (relative to capsule 2-3 = 10) [3]: 10
B3: capsule 2-4 (peptide)
peptide: EGHKIFPSWY
modifications: not fully specified (N-terminus); printed as Glu-Gly-His-Lys-Ile-Phe-Pro-Ser-Trp-Tyr; also: N-terminus linked to microcapsule surface carboxyl (EDAC/NHS)

binding interference of melanocyte and alpha-MSH, relative (capsule 2-3 = 10) (relative to capsule 2-3 = 10) [5]: 7.5
B5: capsule 2-2 (peptide)
peptide: EGHKIFPSWY
modifications: not fully specified (N-terminus); printed as Glu-Gly-His-Lys-Ile-Phe-Pro-Ser-Trp-Tyr; also: N-terminus amide-linked to microcapsule surface carboxyl (EDAC/NHS)

binding affinity (binding rate) [7]: 70%
percent reduction of the binding of melanocyte and alpha-MSH [8]: 95%
binding interference of melanocyte and alpha-MSH, relative (capsule 2-3 = 10) (relative to capsule 2-3 = 10) [9]: 10
B7: capsule 2 (microcapsule to which the peptide of SEQ ID NO: 2 was linked) (peptide)
peptide: EGHKIFPSWY
modifications: not fully specified (N-terminus); printed as Glu-Gly-His-Lys-Ile-Phe-Pro-Ser-Trp-Tyr; also: N-terminus amide-linked to microcapsule surface carboxyl (EDAC/NHS)

binding rate [13]: 85%
B9: capsule 3 (microcapsule to which the peptide of SEQ ID NO: 3 was linked) (peptide)
peptide: ADGSP
modifications: not fully specified (N-terminus); printed as Ala-Asp-Gly-Ser-Pro; also: N-terminus linked to microcapsule surface carboxyl (EDAC/NHS)

binding interference of melanocyte and alpha-MSH, relative (capsule 2-3 = 10) (relative to capsule 2-3 = 10) [15]: 3
B11: capsule 2-6 (peptide)
peptide: EGHKIFPSWY
modifications: not fully specified (N-terminus); printed as Glu-Gly-His-Lys-Ile-Phe-Pro-Ser-Trp-Tyr; also: N-terminus linked to microcapsule surface carboxyl (EDAC/NHS)

The next lines start with the binder.

B4: capsule 1-5 (peptide)
peptide: AKST
modifications: not fully specified (N-terminus); printed as Ala-Lys-Ser-Thr; also: N-terminus amide-linked to microcapsule surface carboxyl (EDAC/NHS)
binding affinity to fibroblasts, relative (capsule 1-3 = 10) (relative to capsule 1-3 = 10) [4]: 7.5

B6: capsule 1-6 (peptide)
peptide: AKST
modifications: not fully specified (N-terminus); printed as Ala-Lys-Ser-Thr; also: N-terminus amide-linked to microcapsule surface carboxyl (EDAC/NHS)
binding affinity to fibroblasts, relative (capsule 1-3 = 10) (relative to capsule 1-3 = 10) [6]: 3.5

B8: capsule 1 (microcapsule to which the peptide of SEQ ID NO: 1 was linked) (peptide)
peptide: AKST
modifications: not fully specified (N-terminus); printed as Ala-Lys-Ser-Thr; also: N-terminus amide-linked to microcapsule surface carboxyl (EDAC/NHS)
fold binding affinity against the microcapsule to which the peptide was not linked [10]: 4 times
binding rate [11]: 75%
binding affinity to fibroblasts, relative (capsule 1-3 = 10) (relative to capsule 1-3 = 10) [12]: 10

B10: capsule 1-2 (peptide)
peptide: AKST
modifications: not fully specified (N-terminus); printed as Ala-Lys-Ser-Thr; also: N-terminus amide-linked to microcapsule surface carboxyl (EDAC/NHS)
binding affinity to fibroblasts, relative (capsule 1-3 = 10) (relative to capsule 1-3 = 10) [14]: 7

B12: capsule 1-1 (peptide)
peptide: AKST
modifications: not fully specified (N-terminus); printed as Ala-Lys-Ser-Thr; also: N-terminus amide-linked to microcapsule surface carboxyl (EDAC/NHS)
binding affinity to fibroblasts, relative (capsule 1-3 = 10) (relative to capsule 1-3 = 10) [16]: 2

B13: capsule 1-4 (peptide)
peptide: AKST
modifications: not fully specified (N-terminus); printed as Ala-Lys-Ser-Thr; also: N-terminus amide-linked to microcapsule surface carboxyl (EDAC/NHS)
binding affinity to fibroblasts, relative (capsule 1-3 = 10) (relative to capsule 1-3 = 10) [17]: 9.5
